Source: paper PMC4046817

Columns and labels:
Settings in all cases: EMSA/footprinting in LrpB binding buffer (ref. 27); composition, pH and temperature not given
[1] = molecular target: T1, Ss-LrpB (Sulfolobus solfataricus P2?) (UniProt Q7LX67); test: EMSA
T1 sequence: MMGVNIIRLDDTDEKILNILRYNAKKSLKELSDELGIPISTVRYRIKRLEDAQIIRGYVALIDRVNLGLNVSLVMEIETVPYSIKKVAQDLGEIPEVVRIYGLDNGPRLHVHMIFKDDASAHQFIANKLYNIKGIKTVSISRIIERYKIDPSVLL

[2] = tested on: Ss-LrpB (Sulfolobus solfataricus P2?); test: EMSA
[3] = molecular target: T1, Ss-LrpB (Sulfolobus solfataricus P2?); test: in-gel Cu-OP footprinting

Substance	binding [1]	further results
AGTATCTCGTTAATAACATCGTCTTTGTTACCTTCAAAGAACTCTGCATATATTATTTCGTCGTAAAGAATTAGATATCCTTTTGCACTAGTCAGCAGAGAATATTTATATCCTCTACATCCCTCACAATAACCTCTAACCTCTTTAACTAGTAAATGTTCAATCACAGATAGTTTAATATTTCCTTTTTCAATTATTTCTATATCATTATCTTTTTTAACTGATAATCTCTTAGCTAAATAATAAAGTGCGACCTGA (double strand) [Ssot36 fragment]	no binding	–
TGGAGAAGATGACGAAATGGTATTAAAGGAACATTCAATTACCTTATGTGATACAATAAAAAGGATGGGAGGGGATTGCGAGTTGCATATAATTCCGAAAATGAAGCACACACCTTTAGGGCAACAGTATCAAACAATTTGGAGTATAATTGAGGATTGGATAAAGAGGAATAGTTCTAGTTTTTAACCAGTTTGTGCCCAGTTCTCATACCTCATGAGTTCATTTCTACCCTTATCTTTAGCCACAATGTCTAGA (double strand) [Sso1433 fragment]	binds	–
CRISPR4 (CRISPR B leader) fragment	–	Kd [2]: 63 nM
CCTTTACTCTTCATGCGACCAATTTTAGTTGTAATTAATTTAACAATTTCTGGTCGCAAGGATTTTATGTTAAATTGAAACATTGGGTATCATTTATAAACGTTCAATTATTATAGAAAGATTCGTTTCGGTCGCATTGAGACTCGAACTTTCACACTTTTAAACAACTTCATAAAAACGAAGTTTGAAGTTCTCTATTTGATAATAATGTTTCACTGATTTCGTATCATATCGAAAAATATTTTTTATCTCTTATCGCTCTCCTTTCATC (double strand) [CRISPR4 (CRISPR B leader) fragment]	–	Kd [1]: 63 nM; binding [3]: binds
ATATGTATATTCAAGCCATTTAGATGAGATAAGGAAAAATAAAGAATTCTATGATATGATTGCAGAGATACTACAAAGGTATTACAAAAAAATAGGCATAGAGAATGTGAATCAGTTGATACTAACTACTATAAAATAGTTCGTATGTCGAACCTTTCTTTACCGAATTCATTATATATCC (double strand) [Sso6904 fragment]	no binding	–
AATCTTTCATTCCTCCTCTTATATGGATTATTACTGGTTTGTTTTCTTTTTCGGCTATTTGCAAAAATTTCTCCAGAACTTCTATTTGTTTTTTCCTAAGATCCTCGTCTTTTATCCAAAAGTAATCTAAACCGACTTCACTTATTATCTTCCCATACCTAGTTAATTCCAAACACTTATCAATCTCATTAACCTTATCCTTTACAAATTCTGGATG (double strand) [Sso0046 fragment]	no binding	–
Sso0049 Box 1 fragment	–	Kd [2]: 150 nM
CGCATTAGAAGTAAAGAACGTAAATACTATGGCAGGAGTGTTATTACCAGCAAGGAACTTGGCATTAGCTAGGGAAATGGGGGCCGATGCGGTAGTTTCAGCTTGTCCTGGTTGTCACTATTCCTTATCTAGAACTCAATATTATCTGACTAAATACCCCAAATTAAGAGAAAAGACTAATATGTATTTAGAAAAAATGGGTACTAAGAATTATGATCTAAAGTTAATGCTAGTTCACGCTGTTGAATATATTTACAATA (double strand) [Sso1135 fragment]	binds	–
